Source: patent publication US20050048548A1

Key:
[1] = molecular target: MBP-BirA fusion (E. coli biotin ligase / biotin holoenzyme synthetase with N-terminal maltose binding protein) (E. coli) [MBP: P0AEX9]; assay: phage ELISA on plate-coated MBP-BirA, anti-M13-HRP detection; reference: same phage unmodified
streptavidin (Prozyme) [2] = molecular target: streptavidin (Prozyme) (UniProt P22629); assay: phage ELISA on plate-coated streptavidin, anti-M13-HRP detection
streptavidin (Prozyme) [3] = molecular target: streptavidin (Prozyme) (UniProt P22629); assay: phage ELISA on plate-coated streptavidin, both with and without 10 mM DTT; reference: Ser-Ser phage

streptavidin (Prozyme), sequence (P22629 37-163 limits assumed): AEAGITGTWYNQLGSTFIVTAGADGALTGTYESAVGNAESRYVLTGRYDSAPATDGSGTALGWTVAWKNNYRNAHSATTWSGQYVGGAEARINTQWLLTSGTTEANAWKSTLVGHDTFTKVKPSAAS

Substance | fold increase of affinity, biotin-modified against unmodified phage [1] | other results
biotin-modified M13 phage clone displaying VTAKSecCYP (peptide) | 5 fold | 
biotin-modified M13 phage clone displaying VPKQSecCQN (peptide) | 5 fold | 
M13 phage displaying the disulfide constrained sequence Cys-HPQGPP-Cys (peptide) |  | reduction of binding in 10 mM DTT against no DTT (orders of magnitude) (streptavidin (Prozyme) [2]): > 2
M13 phage displaying the selenosulfide constrained sequence Cys-HPQGPT-Sec (peptide) |  | tighter binding against the linear Ser-Ser sequence (orders of magnitude) (streptavidin (Prozyme) [3]): 2
biotin-modified M13 phage clone displaying CLQPSecYGS (peptide) | 5 fold | 
